Data set [1] deals with Hemagglutinin on intact virus A/Port Chalmers/1/73 (H3N2) (Influenza A virus) (UniProt P03438+P03438). Put plainly: cell_activity.
Data set [2] addresses Influenza hemagglutinin fragment HA91-261 (globular region) (Influenza A virus (A/Port …, UniProt Q1PUD9 SEQ:1-171)). Put plainly: ELISA. To be noted: tags: N-terminal 6xHis (pQE30, E. coli, Ni-NTA purified).

Chain of Influenza hemagglutinin fragment HA91-261 (globular region) (Influenza A virus (Q1PUD9 107-277): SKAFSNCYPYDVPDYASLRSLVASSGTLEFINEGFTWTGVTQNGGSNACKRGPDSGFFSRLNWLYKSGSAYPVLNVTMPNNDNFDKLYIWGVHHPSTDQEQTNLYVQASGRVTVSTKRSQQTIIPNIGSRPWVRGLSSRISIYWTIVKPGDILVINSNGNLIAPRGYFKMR

In turn, “AATTAACCCTCACTAAAGGGCTGAGTCTCAAAACCGCAATACACTGGTTGTATGGTCGAATAAGTTAA [A22]” showed an activity in data set [1] of 70%.
Regarding AATTAACCCTCACTAAAGGG (ssDNA) [T3 primer negative control], the binding result in data set [2] (label: biotin) is reported as “no binding”.

B1: A21 (ssDNA)
DNA: AATTAACCCTCACTAAAGGGCGCTTATTTGTTCAGGTTGGTCTTCCTATTATGGTCGAATAAGTTAA
As to B1, the binding result in data set [2] is reported as “binds”.

B2: A22 (ssDNA)
DNA: AATTAACCCTCACTAAAGGGCTGAGTCTCAAAACCGCAATACACTGGTTGTATGGTCGAATAAGTTAA
For the molecule B2, the binding result in data set [2] is “binds”.

These data come from patent publication US20070059806, “Nucleic acid molecules, polypeptides, antibodies and compositions containing same useful for treating and detecting influenza virus infection” (Yeda Research and Development Co., Ltd. at the Weizmann …, published 2007).
